# B1: GpH7-A5/GpH7-B3 variant I332_06M/GpL16-k0 (antibody, human IgG1, kappa)
# heavy 1: not shown
# heavy 2: not shown
# light: DIVMTQSPLSLPVTPGEPASISCQASESLVHSNRNTYLHWYLQKPGQSPQLLIYKVSNRFSGVPDRFSGSGSGTDFTLKISRVEAEDVGVYYCSQNTHVPPTFGQGTKVEIERTVAAPSVFIFPPSDEQLKSGTASVVCLLNNFYPREAKVQWKVDNALQSGNSQESVTEQDSKDSTYSLSSTLTLSKADYEKHKVYACEVTHQGLSSPVTKSFNRGEC
# notes: also called He Ab I332_06M
# B2: GpH7-A5/GpH7-B3 variant I332_03V/GpL16-k0 (antibody, human IgG1, kappa)
# heavy 1: not shown
# heavy 2: not shown
# light: B1 light
# notes: also called He Ab I332_03V
# B3: GpH7-B3 variant S324_10E/GpL16-k0 (antibody, human IgG1, kappa)
# heavy: not shown
# light: B1 light
# notes: also called Ho Ab S324_10E
# B4: GpH7-B3 variant S324_02A/GpL16-k0 (antibody, human IgG1, kappa)
# heavy: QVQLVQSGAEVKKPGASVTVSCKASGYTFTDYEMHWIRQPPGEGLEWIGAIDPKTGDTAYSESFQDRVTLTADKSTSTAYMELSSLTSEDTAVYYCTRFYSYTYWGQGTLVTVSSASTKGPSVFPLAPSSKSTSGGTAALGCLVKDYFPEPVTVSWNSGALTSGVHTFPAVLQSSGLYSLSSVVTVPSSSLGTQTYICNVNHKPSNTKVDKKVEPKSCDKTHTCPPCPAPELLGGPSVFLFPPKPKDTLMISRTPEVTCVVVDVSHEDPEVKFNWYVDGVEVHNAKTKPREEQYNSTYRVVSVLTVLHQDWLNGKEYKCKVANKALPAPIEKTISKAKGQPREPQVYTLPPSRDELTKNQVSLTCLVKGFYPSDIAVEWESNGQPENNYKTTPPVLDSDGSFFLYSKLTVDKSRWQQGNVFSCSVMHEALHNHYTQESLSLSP
# light: B1 light
# notes: also called Ho Ab S324_02A
# B5: GpH7-A5/GpH7-B3 variant I336_08L/GpL16-k0 (antibody, human IgG1, kappa)
# heavy 1: not shown
# heavy 2: not shown
# light: B1 light
# notes: also called He Ab I336_08L
# B6: GpH7-B3 variant T335_01G/GpL16-k0 (antibody, human IgG1, kappa)
# heavy: not shown
# light: B1 light
# notes: also called Ho Ab T335_01G
# B7: GpH7-B3 variant S337_09D/GpL16-k0 (antibody, human IgG1, kappa)
# heavy: not shown
# light: B1 light
# notes: also called Ho Ab S337_09D
# B8: GpH7-B3 variant T335_15Y/GpL16-k0 (antibody, human IgG1, kappa)
# heavy: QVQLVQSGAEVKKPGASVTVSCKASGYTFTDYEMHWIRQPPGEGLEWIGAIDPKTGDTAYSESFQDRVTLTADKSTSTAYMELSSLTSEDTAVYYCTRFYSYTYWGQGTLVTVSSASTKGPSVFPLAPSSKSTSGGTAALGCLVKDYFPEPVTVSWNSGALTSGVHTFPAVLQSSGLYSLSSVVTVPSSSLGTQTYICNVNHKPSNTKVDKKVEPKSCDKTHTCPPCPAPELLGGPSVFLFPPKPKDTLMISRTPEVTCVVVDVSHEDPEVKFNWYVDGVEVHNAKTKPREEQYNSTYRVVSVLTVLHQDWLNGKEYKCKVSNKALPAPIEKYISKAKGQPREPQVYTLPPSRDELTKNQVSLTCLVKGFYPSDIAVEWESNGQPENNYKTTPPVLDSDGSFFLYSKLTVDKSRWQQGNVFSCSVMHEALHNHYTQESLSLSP
# light: B1 light
# notes: also called Ho Ab T335_15Y
# B9: GpH7-B3 variant T335_19Q/GpL16-k0 (antibody, human IgG1, kappa)
# heavy: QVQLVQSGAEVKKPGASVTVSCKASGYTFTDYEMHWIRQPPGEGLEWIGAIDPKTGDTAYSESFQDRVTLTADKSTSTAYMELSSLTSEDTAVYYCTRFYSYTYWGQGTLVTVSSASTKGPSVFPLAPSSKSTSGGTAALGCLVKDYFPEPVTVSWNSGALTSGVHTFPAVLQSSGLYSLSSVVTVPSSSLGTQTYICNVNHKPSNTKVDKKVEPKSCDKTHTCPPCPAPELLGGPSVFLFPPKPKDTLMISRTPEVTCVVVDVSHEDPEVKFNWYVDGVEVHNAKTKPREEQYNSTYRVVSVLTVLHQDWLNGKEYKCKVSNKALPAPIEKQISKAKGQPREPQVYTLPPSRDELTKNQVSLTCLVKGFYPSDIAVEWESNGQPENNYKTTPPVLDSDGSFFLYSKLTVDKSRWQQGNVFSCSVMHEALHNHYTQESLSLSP
# light: B1 light
# notes: also called Ho Ab T335_19Q
# B10: GpH7-A5/GpH7-B3 variant I332_13S/GpL16-k0 (antibody, human IgG1, kappa)
# heavy 1: not shown
# heavy 2: not shown
# light: B1 light
# notes: also called He Ab I332_13S
# B11: GpH7-B3 variant S324_09D/GpL16-k0 (antibody, human IgG1, kappa)
# heavy: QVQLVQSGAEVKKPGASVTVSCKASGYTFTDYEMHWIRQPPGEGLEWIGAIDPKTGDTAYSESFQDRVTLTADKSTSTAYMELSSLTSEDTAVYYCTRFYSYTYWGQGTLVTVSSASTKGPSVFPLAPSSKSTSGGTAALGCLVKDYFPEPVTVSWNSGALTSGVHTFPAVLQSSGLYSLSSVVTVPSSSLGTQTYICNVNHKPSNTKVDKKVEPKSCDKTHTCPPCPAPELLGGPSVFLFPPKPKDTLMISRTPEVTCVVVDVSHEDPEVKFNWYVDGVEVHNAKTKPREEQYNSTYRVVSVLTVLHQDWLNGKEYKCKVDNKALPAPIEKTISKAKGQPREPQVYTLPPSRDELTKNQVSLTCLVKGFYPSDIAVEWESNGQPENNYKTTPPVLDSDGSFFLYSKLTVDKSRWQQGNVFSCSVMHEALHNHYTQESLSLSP
# light: B1 light
# notes: also called Ho Ab S324_09D
# B12: GpH7-A5/GpH7-B3 variant I332_04F/GpL16-k0 (antibody, human IgG1, kappa)
# heavy 1: not shown
# heavy 2: not shown
# light: B1 light
# notes: also called He Ab I332_04F
# B13: GpH7-A5/GpH7-B3 variant H268_09D/GpL16-k0 (antibody, human IgG1, kappa)
# heavy 1: not shown
# heavy 2: not shown
# light: B1 light
# notes: also called He Ab H268_09D
# B14: GpH7-A5/GpH7-B3 variant K334_07I/GpL16-k0 (antibody, human IgG1, kappa)
# heavy 1: not shown
# heavy 2: not shown
# light: B1 light
# notes: also called He Ab K334_07I
# B15: GpH7-B3 variant S324_20W/GpL16-k0 (antibody, human IgG1, kappa)
# heavy: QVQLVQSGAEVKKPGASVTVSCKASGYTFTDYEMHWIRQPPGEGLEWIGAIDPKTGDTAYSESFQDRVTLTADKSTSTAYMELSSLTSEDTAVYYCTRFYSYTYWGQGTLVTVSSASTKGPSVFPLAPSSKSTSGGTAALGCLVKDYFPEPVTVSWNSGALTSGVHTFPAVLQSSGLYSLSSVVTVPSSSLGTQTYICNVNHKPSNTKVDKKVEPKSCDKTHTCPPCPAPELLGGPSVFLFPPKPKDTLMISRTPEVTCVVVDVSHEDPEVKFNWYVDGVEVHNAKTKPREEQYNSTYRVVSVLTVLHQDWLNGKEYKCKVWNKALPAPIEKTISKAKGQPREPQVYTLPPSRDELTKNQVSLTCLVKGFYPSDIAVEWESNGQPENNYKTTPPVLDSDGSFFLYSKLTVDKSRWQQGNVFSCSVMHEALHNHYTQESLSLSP
# light: B1 light
# notes: also called Ho Ab S324_20W
# B16: GpH7-A5/GpH7-B3 variant I332_18N/GpL16-k0 (antibody, human IgG1, kappa)
# heavy 1: not shown
# heavy 2: not shown
# light: B1 light
# notes: also called He Ab I332_18N
# B17: GpH7-A5/GpH7-B3 variant L328_02A/GpL16-k0 (antibody, human IgG1, kappa)
# heavy 1: not shown
# heavy 2: not shown
# light: B1 light
# notes: also called He Ab L328_02A
# B18: GpH7-A5/GpH7-B3 variant I332_10E/GpL16-k0 (antibody, human IgG1, kappa)
# heavy 1: not shown
# heavy 2: not shown
# light: B1 light
# notes: also called He Ab I332_10E
# B19: GpH7-B3 variant T335_13S/GpL16-k0 (antibody, human IgG1, kappa)
# heavy: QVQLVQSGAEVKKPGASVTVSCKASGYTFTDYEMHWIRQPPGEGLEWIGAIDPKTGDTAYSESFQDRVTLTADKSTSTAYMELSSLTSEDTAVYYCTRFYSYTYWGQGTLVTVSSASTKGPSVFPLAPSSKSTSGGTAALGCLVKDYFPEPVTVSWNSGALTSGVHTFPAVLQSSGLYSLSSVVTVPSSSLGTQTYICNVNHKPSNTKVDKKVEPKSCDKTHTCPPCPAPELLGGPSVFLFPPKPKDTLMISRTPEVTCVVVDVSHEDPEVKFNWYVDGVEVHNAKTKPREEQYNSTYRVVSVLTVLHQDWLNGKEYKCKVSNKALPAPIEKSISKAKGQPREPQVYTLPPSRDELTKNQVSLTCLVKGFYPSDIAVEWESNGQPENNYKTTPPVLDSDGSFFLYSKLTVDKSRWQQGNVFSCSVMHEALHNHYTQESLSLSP
# light: B1 light
# notes: also called Ho Ab T335_13S
# B20: GpH7-A5/GpH7-B3 variant I332_16H/GpL16-k0 (antibody, human IgG1, kappa)
# heavy 1: not shown
# heavy 2: not shown
# light: B1 light
# notes: also called He Ab I332_16H
# B21: GpH7-A5/GpH7-B3 variant K334_03V/GpL16-k0 (antibody, human IgG1, kappa)
# heavy 1: not shown
# heavy 2: not shown
# light: B1 light
# notes: also called He Ab K334_03V
# B22: GpH7-A5/GpH7-B3 variant H268_10E/GpL16-k0 (antibody, human IgG1, kappa)
# heavy 1: not shown
# heavy 2: not shown
# light: B1 light
# notes: also called He Ab H268_10E
# B23: GpH7-B3 variant T335_10E/GpL16-k0 (antibody, human IgG1, kappa)
# heavy: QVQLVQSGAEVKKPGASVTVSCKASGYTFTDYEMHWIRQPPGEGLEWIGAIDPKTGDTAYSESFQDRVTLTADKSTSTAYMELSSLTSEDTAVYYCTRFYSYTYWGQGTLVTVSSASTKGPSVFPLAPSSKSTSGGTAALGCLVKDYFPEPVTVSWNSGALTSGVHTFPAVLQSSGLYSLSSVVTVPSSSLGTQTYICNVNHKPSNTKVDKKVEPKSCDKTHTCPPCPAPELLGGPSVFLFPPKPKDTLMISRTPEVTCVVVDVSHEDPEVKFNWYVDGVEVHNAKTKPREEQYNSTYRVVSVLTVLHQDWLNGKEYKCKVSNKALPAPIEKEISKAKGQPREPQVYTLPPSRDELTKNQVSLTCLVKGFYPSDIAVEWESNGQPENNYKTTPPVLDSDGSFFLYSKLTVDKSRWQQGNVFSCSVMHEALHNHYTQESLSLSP
# light: B1 light
# notes: also called Ho Ab T335_10E
# B24: GpH7-B3 variant S337_10E/GpL16-k0 (antibody, human IgG1, kappa)
# heavy: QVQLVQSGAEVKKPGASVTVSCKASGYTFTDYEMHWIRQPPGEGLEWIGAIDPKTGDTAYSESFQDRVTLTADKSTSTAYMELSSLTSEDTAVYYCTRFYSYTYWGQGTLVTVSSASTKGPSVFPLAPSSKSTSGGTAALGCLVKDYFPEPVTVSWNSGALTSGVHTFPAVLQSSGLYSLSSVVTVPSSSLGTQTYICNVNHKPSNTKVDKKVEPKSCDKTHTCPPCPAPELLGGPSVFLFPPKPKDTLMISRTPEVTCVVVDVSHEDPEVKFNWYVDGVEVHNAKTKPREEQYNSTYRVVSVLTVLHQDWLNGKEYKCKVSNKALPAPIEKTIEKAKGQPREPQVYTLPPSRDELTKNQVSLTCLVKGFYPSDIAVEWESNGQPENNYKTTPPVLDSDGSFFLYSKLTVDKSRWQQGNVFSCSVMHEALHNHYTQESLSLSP
# light: B1 light
# notes: also called Ho Ab S337_10E
# B25: GpH7-B3 variant S267_02A/GpL16-k0 (antibody, human IgG1, kappa)
# heavy: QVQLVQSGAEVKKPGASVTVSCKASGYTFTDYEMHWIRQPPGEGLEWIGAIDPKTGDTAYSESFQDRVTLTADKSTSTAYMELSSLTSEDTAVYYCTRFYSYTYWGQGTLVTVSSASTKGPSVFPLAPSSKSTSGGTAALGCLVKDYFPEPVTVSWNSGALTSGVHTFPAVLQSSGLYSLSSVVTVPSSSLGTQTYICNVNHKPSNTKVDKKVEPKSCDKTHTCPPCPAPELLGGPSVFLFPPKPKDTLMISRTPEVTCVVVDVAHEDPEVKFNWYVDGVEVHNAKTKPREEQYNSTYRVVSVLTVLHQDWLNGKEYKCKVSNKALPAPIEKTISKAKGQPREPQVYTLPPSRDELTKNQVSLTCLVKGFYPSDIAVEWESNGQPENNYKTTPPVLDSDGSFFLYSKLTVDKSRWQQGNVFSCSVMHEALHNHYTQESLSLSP
# light: B1 light
# notes: also called Ho Ab S267_02A
# B26: GpH7-B3 variant S337_14T/GpL16-k0 (antibody, human IgG1, kappa)
# heavy: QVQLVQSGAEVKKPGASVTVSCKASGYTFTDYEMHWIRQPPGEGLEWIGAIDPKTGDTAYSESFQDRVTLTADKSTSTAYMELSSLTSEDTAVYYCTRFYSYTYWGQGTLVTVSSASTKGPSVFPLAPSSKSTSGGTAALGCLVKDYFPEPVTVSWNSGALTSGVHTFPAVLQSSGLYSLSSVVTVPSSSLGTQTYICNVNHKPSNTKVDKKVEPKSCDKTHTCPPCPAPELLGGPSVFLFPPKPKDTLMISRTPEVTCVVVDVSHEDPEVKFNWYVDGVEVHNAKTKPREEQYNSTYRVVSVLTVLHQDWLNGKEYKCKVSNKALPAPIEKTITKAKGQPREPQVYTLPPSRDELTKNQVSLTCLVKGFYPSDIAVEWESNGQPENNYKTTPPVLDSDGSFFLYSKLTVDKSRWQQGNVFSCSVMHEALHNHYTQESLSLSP
# light: B1 light
# notes: also called Ho Ab S337_14T
# B27: GpH7-B3 variant T335_16H/GpL16-k0 (antibody, human IgG1, kappa)
# heavy: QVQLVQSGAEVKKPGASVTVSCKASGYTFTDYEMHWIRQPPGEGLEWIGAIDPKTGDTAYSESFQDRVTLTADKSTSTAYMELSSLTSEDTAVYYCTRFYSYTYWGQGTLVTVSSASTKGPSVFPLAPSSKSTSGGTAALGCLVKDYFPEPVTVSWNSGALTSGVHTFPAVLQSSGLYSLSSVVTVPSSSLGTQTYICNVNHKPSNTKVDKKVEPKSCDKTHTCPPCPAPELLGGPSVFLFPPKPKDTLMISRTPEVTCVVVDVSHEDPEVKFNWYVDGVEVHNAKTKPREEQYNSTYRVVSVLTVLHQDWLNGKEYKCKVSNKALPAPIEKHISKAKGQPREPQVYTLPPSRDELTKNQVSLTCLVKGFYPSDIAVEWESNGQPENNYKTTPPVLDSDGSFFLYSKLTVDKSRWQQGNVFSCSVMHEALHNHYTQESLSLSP
# light: B1 light
# notes: also called Ho Ab T335_16H
# B28: GpH7-A5/GpH7-B3 variant K334_04F/GpL16-k0 (antibody, human IgG1, kappa)
# heavy 1: not shown
# heavy 2: not shown
# light: B1 light
# notes: also called He Ab K334_04F
# B29: GpH7-A5/GpH7-B3 variant I336_06M/GpL16-k0 (antibody, human IgG1, kappa)
# heavy 1: not shown
# heavy 2: not shown
# light: B1 light
# notes: also called He Ab I336_06M
# B30: GpH7-A5/GpH7-B3 variant I332_14T/GpL16-k0 (antibody, human IgG1, kappa)
# heavy 1: not shown
# heavy 2: not shown
# light: B1 light
# notes: also called He Ab I332_14T
# Molecular target: T1, FcγRIIa H (human, UniProt P12318 34-217)
# T1 construct: extracellular domain; also called FcgRIIa H type; 2aH; not shown: His tag at the C terminus
# T1 sequence (looked up): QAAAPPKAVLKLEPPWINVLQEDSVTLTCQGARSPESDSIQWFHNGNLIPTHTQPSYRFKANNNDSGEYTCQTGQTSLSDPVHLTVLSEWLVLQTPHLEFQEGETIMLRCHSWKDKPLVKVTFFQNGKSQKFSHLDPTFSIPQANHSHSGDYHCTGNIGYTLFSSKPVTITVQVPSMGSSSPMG
# Experiment: SPR Biacore, relative binding
He/Con_2aH,Ho/Con_2aH,Binder
110 % of GpH7-A5/GpH7-B3/GpL16-k0 (=100),,B1
105 % of GpH7-A5/GpH7-B3/GpL16-k0 (=100),,B2
,104 % of GpH7-B3/GpL16-k0 (=100),B3
,102 % of GpH7-B3/GpL16-k0 (=100),B4
106 % of GpH7-A5/GpH7-B3/GpL16-k0 (=100),,B5
,101 % of GpH7-B3/GpL16-k0 (=100),B6
,107 % of GpH7-B3/GpL16-k0 (=100),B7
,102 % of GpH7-B3/GpL16-k0 (=100),B8
,103 % of GpH7-B3/GpL16-k0 (=100),B9
110 % of GpH7-A5/GpH7-B3/GpL16-k0 (=100),,B10
,113 % of GpH7-B3/GpL16-k0 (=100),B11
104 % of GpH7-A5/GpH7-B3/GpL16-k0 (=100),,B12
133 % of GpH7-A5/GpH7-B3/GpL16-k0 (=100),,B13
110 % of GpH7-A5/GpH7-B3/GpL16-k0 (=100),,B14
,108 % of GpH7-B3/GpL16-k0 (=100),B15
110 % of GpH7-A5/GpH7-B3/GpL16-k0 (=100),,B16
130 % of GpH7-A5/GpH7-B3/GpL16-k0 (=100),,B17
108 % of GpH7-A5/GpH7-B3/GpL16-k0 (=100),,B18
,101 % of GpH7-B3/GpL16-k0 (=100),B19
109 % of GpH7-A5/GpH7-B3/GpL16-k0 (=100),,B20
109 % of GpH7-A5/GpH7-B3/GpL16-k0 (=100),,B21
124 % of GpH7-A5/GpH7-B3/GpL16-k0 (=100),,B22
,105 % of GpH7-B3/GpL16-k0 (=100),B23
,101 % of GpH7-B3/GpL16-k0 (=100),B24
,120 % of GpH7-B3/GpL16-k0 (=100),B25
,105 % of GpH7-B3/GpL16-k0 (=100),B26
,100 % of GpH7-B3/GpL16-k0 (=100),B27
106 % of GpH7-A5/GpH7-B3/GpL16-k0 (=100),,B28
106 % of GpH7-A5/GpH7-B3/GpL16-k0 (=100),,B29
115 % of GpH7-A5/GpH7-B3/GpL16-k0 (=100),,B30

# Reference: US20180155451A1 (published 2018)
